Laboratory results reported in patent publication US20050282743A1, “Molecular interactions in cells” (Arbor Vita Corporation, priority 2001, published 2005).
Each block holds one binder with its values, some of them ahead of it.

Legend:
[1] = molecular target: T1, GST-MUPP1 PDZ domain 7 (Homo sapiens (Human)), O75970; assay: G' assay; note: key of the grades not given here
T1 chain: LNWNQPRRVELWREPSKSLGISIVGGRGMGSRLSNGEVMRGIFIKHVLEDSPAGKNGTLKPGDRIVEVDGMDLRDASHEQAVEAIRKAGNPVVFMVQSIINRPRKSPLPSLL

[2] = molecular target: T2, GST-MUPP1 PDZ domain 3 (Homo sapiens (Human)), O75970; assay: G' assay; note: key of the grades not given here
T2 chain: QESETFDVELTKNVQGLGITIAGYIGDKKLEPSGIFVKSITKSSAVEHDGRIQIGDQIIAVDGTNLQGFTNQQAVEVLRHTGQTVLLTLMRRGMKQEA

[3] = molecular target: GST-PAR3 PDZ domain 3 (Homo sapiens (Human)), Q8TEW0; assay: G' assay; note: key of the grades not given here
Sequence of GST-PAR3 PDZ domain 3 (Homo sapiens (Human)), Q8TEW0 (Q8TEW0 579-681): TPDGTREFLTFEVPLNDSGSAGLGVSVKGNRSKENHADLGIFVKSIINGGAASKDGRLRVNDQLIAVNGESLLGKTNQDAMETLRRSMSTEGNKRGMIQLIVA

[4] = molecular target: T3, GST-PICK1 PDZ domain 1 (Bos taurus (Bovine)), Q2T9M1; assay: G' assay; note: key of the grades not given here
T3 chain: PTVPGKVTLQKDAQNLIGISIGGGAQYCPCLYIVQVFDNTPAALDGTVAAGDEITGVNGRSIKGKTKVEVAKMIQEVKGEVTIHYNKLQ

[5] = molecular target: T4, GST-KIAA1719 PDZ domain 6 (Homo sapiens (Human)), Q9C0E4; assay: G' assay; note: key of the grades not given here
T4 chain: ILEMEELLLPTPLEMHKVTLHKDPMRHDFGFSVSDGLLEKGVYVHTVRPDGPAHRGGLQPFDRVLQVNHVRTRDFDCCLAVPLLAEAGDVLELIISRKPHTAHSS

[6] = molecular target: T5, GST-KIAA1719 PDZ domain 5 (Homo sapiens (Human)), Q9C0E4; assay: G' assay; note: key of the grades not given here
T5 chain: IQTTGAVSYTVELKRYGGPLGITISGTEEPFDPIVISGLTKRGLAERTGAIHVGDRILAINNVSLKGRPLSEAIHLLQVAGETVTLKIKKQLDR

[7] = molecular target: T6, GST-GRIP 1 PDZ domain 6 (Mus musculus (Mouse)), Q925T6; assay: G' assay; note: key of the grades not given here
T6 chain: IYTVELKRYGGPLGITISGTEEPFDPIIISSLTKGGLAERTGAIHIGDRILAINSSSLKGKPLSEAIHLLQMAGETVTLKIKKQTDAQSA

[8] = molecular target: T7, GST-KIAA0380 PDZ domain 1 (Homo sapiens (Human)), O15085; assay: G' assay; note: key of the grades not given here
T7 chain: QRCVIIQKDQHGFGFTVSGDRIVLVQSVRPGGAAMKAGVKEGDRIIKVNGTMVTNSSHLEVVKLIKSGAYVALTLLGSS

[9] = molecular target: T8, GST-FLJ 10324 PDZ domain 1 [GST: P08515]; assay: G' assay; note: key of the grades not given here
T8 chain: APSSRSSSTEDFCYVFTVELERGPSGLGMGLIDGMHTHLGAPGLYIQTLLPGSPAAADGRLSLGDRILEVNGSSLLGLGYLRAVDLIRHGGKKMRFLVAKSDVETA

[10] = molecular target: T9, GST-INADL PDZ domain 3 (Homo sapiens (Human)), Q8NI35; assay: G' assay; note: key of the grades not given here
T9 chain: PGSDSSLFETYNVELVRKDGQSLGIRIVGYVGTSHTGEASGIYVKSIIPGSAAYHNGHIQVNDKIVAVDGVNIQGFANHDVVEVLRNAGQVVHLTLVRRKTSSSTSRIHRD

[11] = molecular target: T10, GST-AIPC PDZ domain 1 (Homo sapiens (Human)), O15018; assay: G' assay; note: key of the grades not given here
T10 chain: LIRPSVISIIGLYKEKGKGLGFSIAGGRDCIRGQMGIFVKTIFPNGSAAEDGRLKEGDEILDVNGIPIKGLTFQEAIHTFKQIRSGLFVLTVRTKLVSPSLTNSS

[12] = molecular target: T11, GST-MUPP1 PDZ domain 9 (Homo sapiens (Human)), O75970; assay: G' assay; note: key of the grades not given here
T11 chain: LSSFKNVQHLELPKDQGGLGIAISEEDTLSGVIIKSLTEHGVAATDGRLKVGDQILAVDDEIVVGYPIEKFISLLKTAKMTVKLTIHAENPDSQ

[13] = molecular target: T12, GST-ZO-1 PDZ domain 2 (Rattus norvegicus (Rat)), A0A0G2; assay: G' assay; note: key of the grades not given here
T12 chain: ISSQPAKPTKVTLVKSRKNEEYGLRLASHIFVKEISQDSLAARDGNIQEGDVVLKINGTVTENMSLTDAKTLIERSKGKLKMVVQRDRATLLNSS

[14] = molecular target: T13, GST-MINT1 PDZ domains 1, 2, Q02410; assay: G' assay; note: key of the grades not given here
T13 chain: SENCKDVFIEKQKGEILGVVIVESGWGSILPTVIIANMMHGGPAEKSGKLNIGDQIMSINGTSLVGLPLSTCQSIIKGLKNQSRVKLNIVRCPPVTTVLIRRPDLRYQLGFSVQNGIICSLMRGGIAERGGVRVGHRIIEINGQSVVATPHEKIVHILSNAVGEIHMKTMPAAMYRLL

[15] = molecular target: T1, GST-MUPP1 PDZ domain 7 (Homo sapiens …); assay: G assay titration, PDZ 5 ug/ml
[16] = molecular target: T2, GST-MUPP1 PDZ domain 3 (Homo sapiens …); assay: G assay titration, PDZ 5 ug/ml
[17] = molecular target: T3, GST-PICK1 PDZ domain 1 (Bos taurus …); assay: G assay titration, PDZ 5 ug/ml
[18] = molecular target: T4, GST-KIAA1719 PDZ domain 6 (Homo sapiens …); assay: G assay titration, PDZ 5 ug/ml
[19] = molecular target: T5, GST-KIAA1719 PDZ domain 5 (Homo sapiens …); assay: G assay titration, PDZ 5 ug/ml
[20] = molecular target: T6, GST-GRIP 1 PDZ domain 6 (Mus musculus …); assay: G assay titration, PDZ 5 ug/ml
[21] = molecular target: T8, GST-FLJ 10324 PDZ domain 1 [GST: P08515]; assay: G assay titration, PDZ 5 ug/ml
[22] = molecular target: T9, GST-INADL PDZ domain 3 (Homo sapiens …); assay: G assay titration, PDZ 5 ug/ml
[23] = molecular target: T10, GST-AIPC PDZ domain 1 (Homo sapiens …); assay: G assay titration, PDZ 5 ug/ml
[24] = molecular target: T11, GST-MUPP1 PDZ domain 9 (Homo sapiens …); assay: G assay titration, PDZ 5 ug/ml
[25] = molecular target: T12, GST-ZO-1 PDZ domain 2 (Rattus …); assay: G assay titration, PDZ 5 ug/ml
[26] = molecular target: T13, GST-MINT1 PDZ domains 1, 2, Q02410; assay: G assay titration, PDZ 5 ug/ml
[27] = molecular target: GST-PAR3 PDZ domain 3 (Homo sapiens (Human)), Q8TEW0; assay: G assay titration, PDZ 1 ug/ml
[28] = molecular target: T14, GST-MUPP1 PDZ domain 4 (Homo sapiens (Human)), O75970; assay: G' assay; note: key of the grades not given here
T14 chain: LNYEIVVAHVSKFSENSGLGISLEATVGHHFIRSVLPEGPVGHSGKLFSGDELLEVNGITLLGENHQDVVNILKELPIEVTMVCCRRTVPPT

[29] = molecular target: T15, GST-LU-1 PDZ domain 1 (Homo sapiens (Human)), Q76G19; assay: G' assay; note: key of the grades not given here
T15 chain: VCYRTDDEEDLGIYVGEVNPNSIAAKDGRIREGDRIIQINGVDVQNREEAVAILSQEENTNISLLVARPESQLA

[30] = molecular target: T16, GST-APXL-1 PDZ domain 1 (Homo sapiens (Human)), Q13796; assay: G' assay; note: key of the grades not given here
T16 chain: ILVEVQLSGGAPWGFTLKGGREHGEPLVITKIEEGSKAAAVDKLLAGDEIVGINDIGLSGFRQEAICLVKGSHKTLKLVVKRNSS

[31] = molecular target: T17, GST-PTPL1 PDZ domain 5 (Homo sapiens (Human)), Q12923; assay: G' assay; note: key of the grades not given here
T17 chain: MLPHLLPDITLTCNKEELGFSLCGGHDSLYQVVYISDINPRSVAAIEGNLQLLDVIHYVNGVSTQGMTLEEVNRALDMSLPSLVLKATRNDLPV

[32] = molecular target: T18, GST-MINT1 PDZ domain 2 (Mus musculus (Mouse)), B2RUJ5; assay: G' assay; note: key of the grades not given here
T18 chain: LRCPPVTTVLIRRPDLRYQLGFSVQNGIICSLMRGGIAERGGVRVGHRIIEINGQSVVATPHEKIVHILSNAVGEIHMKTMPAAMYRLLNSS

[33] = molecular target: T19, GST-KIAA1719 PDZ domain 3 (Homo sapiens (Human)), Q9C0E4; assay: G' assay; note: key of the grades not given here
T19 chain: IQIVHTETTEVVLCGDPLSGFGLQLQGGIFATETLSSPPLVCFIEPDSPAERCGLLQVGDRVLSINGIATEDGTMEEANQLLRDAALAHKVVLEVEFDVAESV

[34] = molecular target: T20, GST-KIAA0973 PDZ domain 1 (Homo sapiens (Human)), Q9Y2H9; assay: G' assay; note: key of the grades not given here
T20 chain: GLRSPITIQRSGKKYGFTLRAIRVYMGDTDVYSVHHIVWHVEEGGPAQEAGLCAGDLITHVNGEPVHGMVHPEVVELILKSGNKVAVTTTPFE

[35] = molecular target: T21, GST-GRIP 1 PDZ domain 5 (Homo sapiens (Human)), Q9Y3R0; assay: G' assay; note: key of the grades not given here
T21 chain: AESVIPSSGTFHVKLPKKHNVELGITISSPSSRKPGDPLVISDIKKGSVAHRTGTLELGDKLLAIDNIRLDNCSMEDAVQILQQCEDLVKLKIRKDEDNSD

[36] = molecular target: T22, GST-DVL2 PDZ domain 1 (Homo sapiens (Human)), O14641; assay: G' assay; note: key of the grades not given here
T22 chain: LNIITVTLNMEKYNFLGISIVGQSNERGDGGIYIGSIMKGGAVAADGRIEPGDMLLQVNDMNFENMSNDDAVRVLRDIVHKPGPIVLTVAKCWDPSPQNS

[37] = molecular target: GST-CARD14 PDZ domain 1 (Homo sapiens (Human)), Q9BXL6; assay: G' assay; note: key of the grades not given here
Sequence of GST-CARD14 PDZ domain 1 (Homo sapiens (Human)), Q9BXL6 (Q9BXL6 565-664): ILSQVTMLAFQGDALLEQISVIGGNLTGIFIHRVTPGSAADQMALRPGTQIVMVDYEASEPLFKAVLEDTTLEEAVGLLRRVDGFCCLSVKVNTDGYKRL

[38] = molecular target: T23, GST-MPP2 PDZ domain 1 (Homo sapiens (Human)), Q14168; assay: G' assay; note: key of the grades not given here
T23 chain: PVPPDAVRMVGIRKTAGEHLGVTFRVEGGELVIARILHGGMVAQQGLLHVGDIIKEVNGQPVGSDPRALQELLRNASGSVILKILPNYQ

[39] = molecular target: T24, GST-HEMBA 1003117 PDZ domain 1 (Homo sapiens (Human)), Q96JH8; assay: G' assay; note: key of the grades not given here
T24 chain: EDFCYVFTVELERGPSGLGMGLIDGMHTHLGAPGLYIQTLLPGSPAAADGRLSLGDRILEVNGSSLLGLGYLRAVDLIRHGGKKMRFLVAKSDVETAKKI

Classification [1]: 3 A450 class
Classification [2]: 4 A450 class
Classification [3]: 4 A450 class
Classification [4]: 1 A450 class
Classification [5]: 2 A450 class
Classification [6]: 2 A450 class
Classification [7]: 2 A450 class
Classification [8]: 1 A450 class
Classification [9]: 3 A450 class
Classification [10]: 3 A450 class
Classification [11]: 2 A450 class
Classification [12]: 3 A450 class
Classification [13]: 2 A450 class
Classification [14]: 3 A450 class
Kd [15]: 800 nM
Kd [16]: 400 nM
Kd [17]: 1000 nM
Kd [18]: 800 nM
Kd [19]: 1000 nM
Kd [20]: 500 nM
Kd [21]: 600 nM
Kd [22]: 600 nM
Kd [23]: 600 nM
Kd [24]: 700 nM
Kd [25]: 400 nM
Kd [26]: 500 nM
Kd [27]: 600 nM
Binder: HHLVAQRDIRQFQLQHWLAI (modifications not checked) [noradrenaline transporter]

Classification [28]: 3 A450 class
Classification [29]: 4 A450 class
Classification [30]: 3 A450 class
Classification [31]: 3 A450 class
Classification [32]: 3 A450 class
Classification [33]: 5 A450 class
Classification [34]: 3 A450 class
Classification [35]: 1 A450 class
Classification [36]: 3 A450 class
Classification [37]: 5 A450 class
Binder: DFRPSFKHILFRRARRGFRQ (modifications not checked) [alpha-2C Adrenergic receptor]

Classification [38]: 2 A450 class
Classification [39]: 2 A450 class
Classification [37]: 2 A450 class
Binder: LAVLAYSITLVMLWSIWQYA (modifications not checked) [Serotonin receptor 3a]
